Test results as given in paper PMC7000685 (Nature Communications, 2020).

Target: the molecule itself
Assay: crystal structure; sitting-drop vapor diffusion at 20 °C, 8 mg/ml GFAT-1; 0.1 M Bis tris propane pH 8.5-9.0, 0.2-0.4 M potassium sodium tartrate, 20% (w/v) PEG3350; SEC buffer with Frc6P, 50 mM L-Arg and 50 mM L-Glu; two monomers in the asymmetric unit

| Protein | stoichiometry N | binding result |
| --- | --- | --- |
| human glutamine fructose-6-phosphate amidotransferase-1 (GFAT-1) isoform 2, full length, with internal His6-tag (enzyme, UniProt Q06210-2 1-681, looked up, phosphoserine at 243 (found in mass spectrometry and in the crystal structure), human GFAT-1 isoform 2 (glutamine fructose-6-phosphate amidotransferase-1, EC 2.6.1.16), full length; residue numbers run to 681 (C-loop 670-681); His6 inserted between Gly299 and Asp300; Initial methionine removed in the purified protein; also called GFAT-1 WT; wild type GFAT-1; source: Sf21 insect cells (MultiBac baculovirus), purified (Ni-NTA, SEC); not shown: His6, internal (after residue …)) MCGIFAYLNYHVPRTRREILETLIKGLQRLEYRGYDSAGVGFDGGNDKDWEANACKIQLIKKKGKVKALDEEVHKQQDMDLDIEFDVHLGIAHTRWATHGEPSPVNSHPQRSDKNNEFIVIHNGIITNYKDLKKFLESKGYDFESETDTETIAKLVKYMYDNRESQDTSFTTLVERVIQQLEGAFALVFKSVHFPGQAVGTRRGSPLLIGVRSEHKLSTDHIPILYRTGKDKKGSCNLSRVDSTTCLFPVEEKAVEYYFASDASAVIEHTNRVIFLEDDDVAAVVDGRLSIHRIKRTAGDHPGRAVQTLQMELQQIMKGNFSSFMQKEIFEQPESVVNTMRGRVNFDDYTVNLGGLKDHIKEIQRCRRLILIACGTSYHAGVATRQVLEELTELPVMVELASDFLDRNTPVFRDDVCFFLSQSGETADTLMGLRYCKERGALTVGITNTVGSSISRETDCGVHINAGPEIGVASTKAYTSQFVSLVMFALMMCDDRISMQERRKEIMLGLKRLPDLIKEVLSMDDEIQKLATELYHQKSVLIMGRGYHYATCLEGALKIKEITYMHSEGILAGELKHGPLALVDKLMPVIMIIMRDHTYAKCQNALQQVVARQGRPVVICDKEDTETIKNTKRTIKVPHSVDCLQGILSVIPLQLLAFHLAVLRGYDVDFPRNLAKSVTVE | 2 |  |
| human GFAT-1 G451E (isoform 2, full length, with internal His6-tag) (enzyme, UniProt Q06210-2 1-681, looked up, human GFAT-1 isoform 2, full length, with G451E; His6 inserted between Gly299 and Asp300 (made from pFL-hGFAT1-His299); Same construct as m1 with the point mutation G451E; source: Sf21 insect cells (MultiBac baculovirus), purified (Ni-NTA, SEC)) MCGIFAYLNYHVPRTRREILETLIKGLQRLEYRGYDSAGVGFDGGNDKDWEANACKIQLIKKKGKVKALDEEVHKQQDMDLDIEFDVHLGIAHTRWATHGEPSPVNSHPQRSDKNNEFIVIHNGIITNYKDLKKFLESKGYDFESETDTETIAKLVKYMYDNRESQDTSFTTLVERVIQQLEGAFALVFKSVHFPGQAVGTRRGSPLLIGVRSEHKLSTDHIPILYRTGKDKKGSCNLSRVDSTTCLFPVEEKAVEYYFASDASAVIEHTNRVIFLEDDDVAAVVDGRLSIHRIKRTAGDHPGRAVQTLQMELQQIMKGNFSSFMQKEIFEQPESVVNTMRGRVNFDDYTVNLGGLKDHIKEIQRCRRLILIACGTSYHAGVATRQVLEELTELPVMVELASDFLDRNTPVFRDDVCFFLSQSGETADTLMGLRYCKERGALTVGITNTVESSISRETDCGVHINAGPEIGVASTKAYTSQFVSLVMFALMMCDDRISMQERRKEIMLGLKRLPDLIKEVLSMDDEIQKLATELYHQKSVLIMGRGYHYATCLEGALKIKEITYMHSEGILAGELKHGPLALVDKLMPVIMIIMRDHTYAKCQNALQQVVARQGRPVVICDKEDTETIKNTKRTIKVPHSVDCLQGILSVIPLQLLAFHLAVLRGYDVDFPRNLAKSVTVE |  | binds |
